B1: DBF12-L15 dsRNA 40 bp (dsRNA)
RNA 1: UGCGGCCAUCUCUUUCGUUUUGAUGUUUCUACGCCAUGUG
RNA 2: CACAUGGCGUAGAAACAUCAAAACGAAAGAGAUGGCCGCA

Experiments:
[1] = target: MSL2-ΔPro/Bas (Drosophila melanogaster) (UniProt P50534); assay: EMSA
[2] = target: T1, MSL2 (Drosophila melanogaster, UniProt P50534 1-773); assay: competition
T1 sequence: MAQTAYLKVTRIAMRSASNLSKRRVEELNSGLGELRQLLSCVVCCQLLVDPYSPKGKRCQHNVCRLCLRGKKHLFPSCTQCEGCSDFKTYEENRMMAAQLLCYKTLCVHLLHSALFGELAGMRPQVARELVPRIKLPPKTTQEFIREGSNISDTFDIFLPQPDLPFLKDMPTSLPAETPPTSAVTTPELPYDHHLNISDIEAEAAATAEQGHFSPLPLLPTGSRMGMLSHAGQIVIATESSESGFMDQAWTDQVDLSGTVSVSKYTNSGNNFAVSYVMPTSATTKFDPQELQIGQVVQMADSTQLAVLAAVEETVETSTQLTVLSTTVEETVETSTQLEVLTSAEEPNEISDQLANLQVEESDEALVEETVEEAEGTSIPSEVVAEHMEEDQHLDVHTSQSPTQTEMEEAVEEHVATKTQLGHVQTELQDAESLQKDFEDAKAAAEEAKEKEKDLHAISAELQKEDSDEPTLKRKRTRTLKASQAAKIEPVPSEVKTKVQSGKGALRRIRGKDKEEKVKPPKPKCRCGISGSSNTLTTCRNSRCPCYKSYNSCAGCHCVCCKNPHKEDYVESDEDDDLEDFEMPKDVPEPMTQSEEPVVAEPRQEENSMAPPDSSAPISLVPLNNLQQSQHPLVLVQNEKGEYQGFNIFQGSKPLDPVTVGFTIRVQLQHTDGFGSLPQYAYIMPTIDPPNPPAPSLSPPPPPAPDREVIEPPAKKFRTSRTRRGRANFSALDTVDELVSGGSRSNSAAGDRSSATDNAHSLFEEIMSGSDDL

[3] = target: T1, MSL2; assay: EMSA
[4] = target: T2, MSL2-ΔRING (Drosophila melanogaster, UniProt P50534 1-40+86-773, internal_change); assay: EMSA
T2 sequence: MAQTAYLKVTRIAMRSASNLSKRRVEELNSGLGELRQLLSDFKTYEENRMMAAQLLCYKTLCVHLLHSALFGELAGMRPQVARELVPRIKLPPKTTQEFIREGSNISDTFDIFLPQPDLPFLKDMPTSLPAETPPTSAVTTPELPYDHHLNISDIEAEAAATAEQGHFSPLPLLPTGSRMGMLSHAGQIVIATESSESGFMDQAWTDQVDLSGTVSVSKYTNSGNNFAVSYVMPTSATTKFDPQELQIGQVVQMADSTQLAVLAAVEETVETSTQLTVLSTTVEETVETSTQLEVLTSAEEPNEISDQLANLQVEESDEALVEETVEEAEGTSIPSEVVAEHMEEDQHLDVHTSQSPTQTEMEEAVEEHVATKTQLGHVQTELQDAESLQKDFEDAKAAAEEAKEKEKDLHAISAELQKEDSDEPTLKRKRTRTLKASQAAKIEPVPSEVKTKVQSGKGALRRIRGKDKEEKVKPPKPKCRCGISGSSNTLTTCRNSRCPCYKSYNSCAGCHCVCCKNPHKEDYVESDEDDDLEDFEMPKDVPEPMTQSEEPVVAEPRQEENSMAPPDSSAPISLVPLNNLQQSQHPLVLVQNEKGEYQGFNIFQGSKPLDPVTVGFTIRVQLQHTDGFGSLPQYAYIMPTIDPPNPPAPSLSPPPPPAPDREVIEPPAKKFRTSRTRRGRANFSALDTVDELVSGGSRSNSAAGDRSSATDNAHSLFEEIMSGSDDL

[5] = target: T3, MSL2-ΔCXC (Drosophila melanogaster, UniProt P50534 1-519+572-773, internal_change); assay: EMSA
T3 sequence: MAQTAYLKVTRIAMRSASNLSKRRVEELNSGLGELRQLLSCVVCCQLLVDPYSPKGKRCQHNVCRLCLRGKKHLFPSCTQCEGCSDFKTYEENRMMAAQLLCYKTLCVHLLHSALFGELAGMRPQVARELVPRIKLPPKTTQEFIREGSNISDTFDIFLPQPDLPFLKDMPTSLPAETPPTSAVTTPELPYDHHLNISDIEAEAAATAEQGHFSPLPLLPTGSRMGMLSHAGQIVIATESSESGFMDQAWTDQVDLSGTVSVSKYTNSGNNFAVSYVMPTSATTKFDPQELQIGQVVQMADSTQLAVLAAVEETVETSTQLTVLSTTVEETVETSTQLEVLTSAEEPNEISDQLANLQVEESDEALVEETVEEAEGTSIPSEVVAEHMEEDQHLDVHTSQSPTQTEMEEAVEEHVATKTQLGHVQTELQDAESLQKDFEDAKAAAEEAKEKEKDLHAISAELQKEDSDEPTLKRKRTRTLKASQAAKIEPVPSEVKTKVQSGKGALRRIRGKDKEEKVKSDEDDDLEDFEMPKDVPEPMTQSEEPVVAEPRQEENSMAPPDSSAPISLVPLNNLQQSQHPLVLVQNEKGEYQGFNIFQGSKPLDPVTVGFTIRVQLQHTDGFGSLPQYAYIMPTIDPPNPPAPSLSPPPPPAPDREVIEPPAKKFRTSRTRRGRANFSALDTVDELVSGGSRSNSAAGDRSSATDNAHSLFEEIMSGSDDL

Molecule	Kd [1] [nM]	IC50 [2] [nM]	Kd [3] [nM]	Kd [4] [nM]	Kd [5] [nM]
UGCGGCCAUCUCUUUCGUUUUGAUGUUUCUACGCCAUGUG / CACAUGGCGUAGAAACAUCAAAACGAAAGAGAUGGCCGCA [DBF12-L15 dsRNA 40 bp]	37	–	–	–	–
B1	–	36 ± 8	21 ± 4	23 ± 5	29 ± 12
